From patent US20240052029A1 (BIOHENG THERAPEUTICS, published 2024)
Substitutions are numbered along the chain they refer to.

B1: 6V8 anti-ROR1 humanized scFv, as chimeric antigen receptor on CAR-T cells (scFv)
scFv: ETTLTQSPATLSVSPGEKVIIRCITSTDIDEDMNWYQQKPGQPPKLLISEGNTLRPGVPSRFSGSGSGTDFTLTISSLQPEDVATYYCLQSNNMPLTFGAGTKLELKGGGGSGGGGSGGGGSQVQLQESGPGLVKPSQTLSLTCTVTAYSITSDYAWNWIRQFPGNKLEWMGYISYSGFTRYNPSLKSRISITRDTSKNQFFLKLNFVTTEDTATYYCARGEITYYFDYWGQGTTLTVSSESKYGPPCPPCPIYIWAPLAGTCGVLLLSLVITLYCKRGRKKLLYIFKQPFMRPVQTTQEEDGCSCRFPEEEEGGCELRVKFSRSADAPAYQQGQNQLYNELNLGRREEYDVLDKRRGRDPEMGGKPRRKNPQEGLYNELQKDKMAEAYSEIGMKGERRRGKGHDGLYQGLSTATKDTYDALHMQALPPR
notes: Humanized from murine ROR1-4
B2: 6V12 anti-ROR1 humanized scFv, as chimeric antigen receptor on CAR-T cells (scFv)
scFv: B1 scFv with G64S
notes: Humanized from murine ROR1-4
B3: 6V11 anti-ROR1 humanized scFv, as chimeric antigen receptor on CAR-T cells (scFv)
scFv: B1 scFv with K18R, V19A, T147S, M171I, F201Y, F202Y, K204Q, F207S
notes: Humanized from murine ROR1-4
B4: 6V9 anti-ROR1 humanized scFv, as chimeric antigen receptor on CAR-T cells (scFv)
scFv: B1 scFv with T147S, M171I, F201Y, F202Y, K204Q, F207S
notes: Humanized from murine ROR1-4
B5: 6V13 anti-ROR1 humanized scFv, as chimeric antigen receptor on CAR-T cells (scFv)
scFv: B1 scFv with G64S, T147S, M171I, F201Y, F202Y, K204Q, F207S
notes: Humanized from murine ROR1-4
B6: 6V10 anti-ROR1 humanized scFv, as chimeric antigen receptor on CAR-T cells (scFv)
scFv: B1 scFv with K18R, V19A
notes: Humanized from murine ROR1-4

These binders were tested against T1, ROR1-hFc (Acrobio brand, Cat. No. R01-H5250) protein (UniProt Q01973 30-403) (assay: flow cytometry: CAR-T cells stained with ROR1-hFc, then PE anti-human IgG Fc).
T1 construct: Bought reagent; not shown: hFc (human Fc, detected with anti-human IgG Fc)
T1 sequence (Q01973 30-403): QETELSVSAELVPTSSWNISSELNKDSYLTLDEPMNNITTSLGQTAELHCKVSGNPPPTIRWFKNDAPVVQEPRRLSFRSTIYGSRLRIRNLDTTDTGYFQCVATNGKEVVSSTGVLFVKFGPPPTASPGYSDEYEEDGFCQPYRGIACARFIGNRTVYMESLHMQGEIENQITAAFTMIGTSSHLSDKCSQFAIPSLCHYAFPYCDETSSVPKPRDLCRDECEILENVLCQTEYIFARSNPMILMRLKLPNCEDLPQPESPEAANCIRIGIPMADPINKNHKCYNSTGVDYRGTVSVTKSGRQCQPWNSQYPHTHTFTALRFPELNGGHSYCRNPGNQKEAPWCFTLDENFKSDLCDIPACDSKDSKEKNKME
Experimental: After culturing at 37° C. and 5% CO₂ for 11 days, the above CAR-T cells, ROR1-4 CAR-T-2 cells (replacing the CD8α hinge region in the ROR1-4 CAR-T cells with the IgG4 hinge region) and Wild-type T cells (NT, used as negative control) were incubated with ROR1-hFc (Acrobio brand, Cat. No. R01-H5250) protein for 45 minutes, and after washing, PE anti-human IgG Fc Antibody (Biolegend brand, Cat. No. 410708) was added to incubate for 30 minutes. The expression level of the anti-ROR1 single chain antibody on the CAR-T cells was detected by flow cytometry, and the results are shown in FIG. 4.

binding result	Binder
binds	B1
binds	B2
binds	B3
binds	B4
binds	B5
binds	B6
